The results in this text go back to paper PMC4459711.

Holding throughout (test): X-ray crystallography
In data set [1] the target is T1, L1750 (LACV L protein, residues 1-1750) (La Crosse virus (strain …, UniProt A5HC98 1-1750)).
Data set [2] concerns the target T1, L1750 (LACV L protein, residues 1-1750). The source holds these as a separate data set.
The target is the same in data set [3]. This is another data set of the same source.

Read-outs that look alike come from different tables or passages of the source.

T1 sequence (A5HC98 1-1750): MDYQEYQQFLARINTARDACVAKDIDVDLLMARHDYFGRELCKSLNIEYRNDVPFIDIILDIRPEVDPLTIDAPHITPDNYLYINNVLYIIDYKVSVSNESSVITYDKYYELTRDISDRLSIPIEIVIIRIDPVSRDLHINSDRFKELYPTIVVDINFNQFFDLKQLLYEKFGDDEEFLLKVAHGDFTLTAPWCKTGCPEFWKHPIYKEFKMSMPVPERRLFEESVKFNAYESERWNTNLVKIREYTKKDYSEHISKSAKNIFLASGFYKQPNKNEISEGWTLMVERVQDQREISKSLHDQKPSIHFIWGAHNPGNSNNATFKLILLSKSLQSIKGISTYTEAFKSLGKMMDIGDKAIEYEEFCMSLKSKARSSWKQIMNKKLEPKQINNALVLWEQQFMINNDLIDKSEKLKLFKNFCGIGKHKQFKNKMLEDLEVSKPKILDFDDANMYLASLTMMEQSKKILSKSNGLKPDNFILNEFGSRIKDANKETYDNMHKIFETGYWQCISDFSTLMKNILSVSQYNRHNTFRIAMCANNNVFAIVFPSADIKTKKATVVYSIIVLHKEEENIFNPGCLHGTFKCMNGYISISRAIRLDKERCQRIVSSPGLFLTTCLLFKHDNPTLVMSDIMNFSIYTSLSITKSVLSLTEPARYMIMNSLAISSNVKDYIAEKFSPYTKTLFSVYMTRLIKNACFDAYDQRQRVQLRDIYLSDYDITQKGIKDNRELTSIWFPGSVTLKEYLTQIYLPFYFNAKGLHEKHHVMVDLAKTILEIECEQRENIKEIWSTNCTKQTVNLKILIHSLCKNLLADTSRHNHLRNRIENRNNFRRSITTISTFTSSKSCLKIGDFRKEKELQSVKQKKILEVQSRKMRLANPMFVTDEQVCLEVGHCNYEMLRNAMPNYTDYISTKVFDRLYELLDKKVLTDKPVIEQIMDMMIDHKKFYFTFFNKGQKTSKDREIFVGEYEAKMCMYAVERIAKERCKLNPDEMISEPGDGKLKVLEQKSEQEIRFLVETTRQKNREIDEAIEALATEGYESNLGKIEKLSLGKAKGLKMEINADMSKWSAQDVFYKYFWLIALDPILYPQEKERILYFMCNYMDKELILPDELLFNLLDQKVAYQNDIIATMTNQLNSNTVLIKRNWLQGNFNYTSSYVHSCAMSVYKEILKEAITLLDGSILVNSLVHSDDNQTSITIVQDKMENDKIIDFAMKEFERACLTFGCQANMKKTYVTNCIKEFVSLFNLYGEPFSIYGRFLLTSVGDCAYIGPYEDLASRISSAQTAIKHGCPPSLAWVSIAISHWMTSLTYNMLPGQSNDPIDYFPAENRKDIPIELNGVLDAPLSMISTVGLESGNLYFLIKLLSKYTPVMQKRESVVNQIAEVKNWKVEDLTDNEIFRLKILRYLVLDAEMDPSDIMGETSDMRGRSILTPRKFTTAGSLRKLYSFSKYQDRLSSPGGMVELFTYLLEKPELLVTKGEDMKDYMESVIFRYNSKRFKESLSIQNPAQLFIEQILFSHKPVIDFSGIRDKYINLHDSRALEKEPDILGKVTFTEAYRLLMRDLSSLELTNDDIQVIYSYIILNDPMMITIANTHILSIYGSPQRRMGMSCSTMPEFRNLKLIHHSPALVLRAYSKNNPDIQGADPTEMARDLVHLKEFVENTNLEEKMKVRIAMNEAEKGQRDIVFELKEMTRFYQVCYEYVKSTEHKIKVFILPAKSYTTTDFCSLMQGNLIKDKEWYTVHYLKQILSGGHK

B1: 5' vRNA 1-10 (hook) (structured_RNA)
RNA: AGUAGUGUGC
modifications: 5' phosphate
For B1, the binding result in data set [1] is on record as “binds”.

B2: 5' vRNA 1-11 (structured_RNA)
RNA: AGUAGUGUGCU
Regarding B2, the binding result in data set [2] was “binds”.

B3: 3' vRNA 1-16 / 5' vRNA 9-16 partial duplex (mixed)
RNA 1: UUGGUAGUACACUACU
RNA 2: GCUACCAA
Consider B3, for which the binding result in data set [3] is on record as “binds”.
